The assay deals with T1, human HER2 (ErbB2)/Fc chimera (Homo sapiens, UniProt P04626).
T1 construct: human epidermal growth factor receptor-2 (HER2, ErbB2), the part present in the bought HER2 (ErbB2)/Fc chimera; also called HER2/Fc; human epidermal growth factor receptor-2; source: bought: R&D Systems
Kind of assay: SPR; Biacore 3000; HER2 amine-coupled on CM5 chip (ovalbumin as reference surface); sdAb injected at 5 to 600 nM, 40 uL/min; room temperature; HBS-EP (10 mM HEPES pH 7.4, 150 mM NaCl, 3 mM EDTA, 0.005% P20); 1:1 Langmuir model. The conditions noted are these: both partners purified.

In publication PMC3257273, “Crystal Structure of a Human Single Domain Antibody Dimer Formed through VH-VH Non-Covalent Interactions” (PLoS ONE, 2012) one finds Kd, koff and kon data, which are given here for one molecule.

B1: Gr3 (VHH)
VHH: QVQLVESGGGLIKPGGSLRLSCAASGFTVSYESMGWVRQAPGKGLEWVSAISSSGGSTYYADSVKGRFTISRDNSKNTVYLQMNSLRAEDTAVYYCVTPERQCKQSTCYARPRYWGQGTMVTVSS
notes: differs from Gr6 only in CDR1 and CDR3; selected from a synthetic human VH phage display library; Single-domain antibody from a human VH, not a camelid VHH; the vector may add further C-terminal residues besides the His tag; also called anti-HER2 sdAb Gr3; human VH single-domain antibody; source: E. coli periplasm, purified (IMAC, Ni-NTA / HiTrap chelating HP)
Consider B1, for which the dissociation constant (Kd) came to 68 nM, the koff was 0.02 s⁻¹ and the kon came out at 290000 M⁻¹ s⁻¹.
